Patent US20250018014A1, “METHOD FOR TREATING AND/OR PREVENTING REGNASE-1-RELATED DISEASE” (OSAKA UNIVERSITY, priority 2018, published 2025)
Positions of bridges follow the written chain, without caps; N, C: chain ends. Non-standard residues stand in square brackets, D forms with d. *: point of attachment. Pyrrolidide = C1CCN(*)C1; dNMeA = CN[C@H](C)C(=O)O

T1: C-terminal human Regnase-1 (amino acids 301 to 599) with N-terminal FLAG tag and C-terminal BirA recognition … (human, UniProt Q5D1E8 301-599)
T1 sequence: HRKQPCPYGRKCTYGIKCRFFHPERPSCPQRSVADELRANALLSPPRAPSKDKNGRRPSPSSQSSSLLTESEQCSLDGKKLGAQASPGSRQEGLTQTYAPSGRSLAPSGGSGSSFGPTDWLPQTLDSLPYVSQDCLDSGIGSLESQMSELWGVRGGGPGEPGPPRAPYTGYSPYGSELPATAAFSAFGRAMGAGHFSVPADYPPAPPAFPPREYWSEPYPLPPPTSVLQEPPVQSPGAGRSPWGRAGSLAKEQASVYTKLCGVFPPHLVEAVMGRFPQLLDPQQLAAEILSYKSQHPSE

T2: full-length human Regnase-1 with a FLAG tag on the N-terminal side and a biotin ligase BirA recognition … (human, UniProt Q5D1E8 1-599, biotinylated at the BirA recognition sequence when required)
T2 sequence: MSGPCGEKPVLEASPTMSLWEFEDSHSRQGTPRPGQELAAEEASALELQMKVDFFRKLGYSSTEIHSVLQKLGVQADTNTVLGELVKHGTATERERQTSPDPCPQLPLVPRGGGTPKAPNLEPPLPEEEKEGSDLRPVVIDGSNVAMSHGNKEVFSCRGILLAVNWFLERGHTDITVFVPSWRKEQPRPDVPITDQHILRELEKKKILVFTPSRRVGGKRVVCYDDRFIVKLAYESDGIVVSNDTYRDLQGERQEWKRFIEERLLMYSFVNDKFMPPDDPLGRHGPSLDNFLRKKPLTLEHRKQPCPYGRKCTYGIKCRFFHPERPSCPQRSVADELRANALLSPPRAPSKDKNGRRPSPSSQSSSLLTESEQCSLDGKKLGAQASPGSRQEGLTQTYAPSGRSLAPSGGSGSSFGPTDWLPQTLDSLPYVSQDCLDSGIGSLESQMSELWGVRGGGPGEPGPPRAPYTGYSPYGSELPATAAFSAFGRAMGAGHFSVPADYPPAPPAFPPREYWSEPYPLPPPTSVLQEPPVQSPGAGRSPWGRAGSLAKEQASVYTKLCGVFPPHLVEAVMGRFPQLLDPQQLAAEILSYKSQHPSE

T3: C-terminal domain-deleted human Regnase-1 (amino acids 1 to 546) with N-terminal FLAG tag and C-terminal BirA … (human, UniProt Q5D1E8 1-546)
T3 sequence: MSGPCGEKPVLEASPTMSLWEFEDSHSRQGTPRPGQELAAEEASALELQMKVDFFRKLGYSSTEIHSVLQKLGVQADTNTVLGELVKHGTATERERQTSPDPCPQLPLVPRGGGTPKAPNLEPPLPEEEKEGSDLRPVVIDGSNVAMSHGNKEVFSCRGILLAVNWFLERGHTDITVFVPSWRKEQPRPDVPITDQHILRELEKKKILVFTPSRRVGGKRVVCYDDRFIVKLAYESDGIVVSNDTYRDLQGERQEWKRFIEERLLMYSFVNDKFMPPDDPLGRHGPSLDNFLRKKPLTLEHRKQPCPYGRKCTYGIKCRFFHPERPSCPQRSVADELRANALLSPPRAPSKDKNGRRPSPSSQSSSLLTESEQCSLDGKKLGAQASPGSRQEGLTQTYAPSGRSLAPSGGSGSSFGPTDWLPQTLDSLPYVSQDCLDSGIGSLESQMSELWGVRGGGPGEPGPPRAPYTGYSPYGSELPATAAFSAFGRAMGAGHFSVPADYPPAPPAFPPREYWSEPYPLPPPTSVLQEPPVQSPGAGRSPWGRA


What was measured:
Experiment in all cases: cell-based or functional assay
[1] = molecular target: T1, C-terminal human Regnase-1 (amino acids …)
[2] = molecular target: T2, full-length human Regnase-1 with a FLAG …
[3] = molecular target: T3, C-terminal domain-deleted human …
[4] = molecular target: T1, C-terminal human Regnase-1 (amino acids …); remark: listed apart in the source
[5] = molecular target: T2, full-length human Regnase-1 with a FLAG …; remark: listed apart in the source
[6] = molecular target: T3, C-terminal domain-deleted human …; remark: listed apart in the source

Binder | 50% inhibition concentration, Regnase-1 phosphorylation by TBK1 (AlphaScreen) [1] [µM] | 50% inhibition concentration, Regnase-1 phosphorylation by TBK1 (AlphaScreen) [2] [µM] | 50% inhibition concentration, Regnase-1 phosphorylation by TBK1 (AlphaScreen) [3] [µM] | 50% inhibition concentration, Regnase-1 phosphorylation by IKKβ (AlphaScreen) [4] [µM] | 50% inhibition concentration, Regnase-1 phosphorylation by IKKβ (AlphaScreen) [5] [µM] | 50% inhibition concentration, Regnase-1 phosphorylation by IKKβ (AlphaScreen) [6] [µM]
[dNMeA]EDTPEDDHD-Pyrrolidide (lactam N-10) [PP25] | 16.3 | 18.9 | 16.1 | 27.6 | 27 | 47.7
XDIWFDYWDYD (HELM PEPTIDE1{[meA].D.I.W.F.D.Y.W.D.Y.D.[C1CCN([*:1])C1]}$PEPTIDE1,PEPTIDE1,1:R1-11:R3$$$V2.0; SMILES CC[C@H](C)[C@@H]1NC(=O)[C@H](CC(=O)O)NC(=O)[C@H](C)N(C)C(=O)C[C@@H](C(=O)N2CCCC2)NC(=O)[C@H](Cc2ccc(O)cc2)NC(=O)[C@H](CC(=O)O)NC(=O)[C@H](Cc2c[nH]c3ccccc23)NC(=O)[C@H](Cc2ccc(O)cc2)NC(=O)[C@H](CC(=O)O)NC(=O)[C@H](Cc2ccccc2)NC(=O)[C@H](Cc2c[nH]c3ccccc23)NC1=O) [PP18] | 0.9 | 0.6 | 1.8 | 0.5 | 0.4 | 0.2
XNSWYKIWGLD (HELM PEPTIDE1{[meA].N.S.W.Y.K.I.W.G.L.D.[C1CCN([*:1])C1]}$PEPTIDE1,PEPTIDE1,1:R1-11:R3$$$V2.0; SMILES CC[C@H](C)[C@@H]1NC(=O)[C@H](CCCCN)NC(=O)[C@H](Cc2ccc(O)cc2)NC(=O)[C@H](Cc2c[nH]c3ccccc23)NC(=O)[C@H](CO)NC(=O)[C@H](CC(N)=O)NC(=O)[C@H](C)N(C)C(=O)C[C@@H](C(=O)N2CCCC2)NC(=O)[C@H](CC(C)C)NC(=O)CNC(=O)[C@H](Cc2c[nH]c3ccccc23)NC1=O) [PP21] | 17 | 13.5 | 11.7 | 37.2 | 19.6 | 39.3
XNSWYRIWGLD (HELM PEPTIDE1{[meA].N.S.W.Y.R.I.W.G.L.D.[C1CCN([*:1])C1]}$PEPTIDE1,PEPTIDE1,1:R1-11:R3$$$V2.0; SMILES CC[C@H](C)[C@@H]1NC(=O)[C@H](CCCNC(=N)N)NC(=O)[C@H](Cc2ccc(O)cc2)NC(=O)[C@H](Cc2c[nH]c3ccccc23)NC(=O)[C@H](CO)NC(=O)[C@H](CC(N)=O)NC(=O)[C@H](C)N(C)C(=O)C[C@@H](C(=O)N2CCCC2)NC(=O)[C@H](CC(C)C)NC(=O)CNC(=O)[C@H](Cc2c[nH]c3ccccc23)NC1=O) [PP22] | 25.8 | 24.3 | 22.8 | 31 | 15 | 34
XVFYKIWYNWD (HELM PEPTIDE1{[meA].V.F.Y.K.I.W.Y.N.W.D.[C1CCN([*:1])C1]}$PEPTIDE1,PEPTIDE1,1:R1-11:R3$$$V2.0; SMILES CC[C@H](C)[C@@H]1NC(=O)[C@H](CCCCN)NC(=O)[C@H](Cc2ccc(O)cc2)NC(=O)[C@H](Cc2ccccc2)NC(=O)[C@H](C(C)C)NC(=O)[C@H](C)N(C)C(=O)C[C@@H](C(=O)N2CCCC2)NC(=O)[C@H](Cc2c[nH]c3ccccc23)NC(=O)[C@H](CC(N)=O)NC(=O)[C@H](Cc2ccc(O)cc2)NC(=O)[C@H](Cc2c[nH]c3ccccc23)NC1=O) [PP19] | 5.8 | 3.7 | 4.6 | 10.1 | 5.4 | 12.6
XWIWDFWNED (HELM PEPTIDE1{[meA].W.I.W.D.F.W.N.E.D.[C1CCN([*:1])C1]}$PEPTIDE1,PEPTIDE1,1:R1-10:R3$$$V2.0; SMILES CC[C@H](C)[C@@H]1NC(=O)[C@H](Cc2c[nH]c3ccccc23)NC(=O)[C@H](C)N(C)C(=O)C[C@@H](C(=O)N2CCCC2)NC(=O)[C@H](CCC(=O)O)NC(=O)[C@H](CC(N)=O)NC(=O)[C@H](Cc2c[nH]c3ccccc23)NC(=O)[C@H](Cc2ccccc2)NC(=O)[C@H](CC(=O)O)NC(=O)[C@H](Cc2c[nH]c3ccccc23)NC1=O) [PP24] | 34.8 | 35.7 | 27.3 | 7.2 | 5.3 | 4
[dNMeA]PTSSWYKIWD-Pyrrolidide (lactam N-11) [PP23] | 30.7 | 18.8 | 29.7 | > 62.1 | 25.6 | > 62.1
XKFWIHHSFED (HELM PEPTIDE1{[meA].K.F.W.I.H.H.S.F.E.D.[C1CCN([*:1])C1]}$PEPTIDE1,PEPTIDE1,1:R1-11:R3$$$V2.0; SMILES CC[C@H](C)[C@@H]1NC(=O)[C@H](Cc2c[nH]c3ccccc23)NC(=O)[C@H](Cc2ccccc2)NC(=O)[C@H](CCCCN)NC(=O)[C@H](C)N(C)C(=O)C[C@@H](C(=O)N2CCCC2)NC(=O)[C@H](CCC(=O)O)NC(=O)[C@H](Cc2ccccc2)NC(=O)[C@H](CO)NC(=O)[C@H](Cc2c[nH]cn2)NC(=O)[C@H](Cc2c[nH]cn2)NC1=O) [PP20] | > 62.1 | 38.5 | > 62.1 | > 62.1 | 24.7 | > 62.1
